Experimental data published in patent US8703913B2, “Sensor” (Medical Research Council, priority 2008, dated 2014).
Substitutions are numbered along the chain they refer to. In names and notes the source's numbering stands.

B1: 5-IATR-ParM (WT): wild-type ParM labeled with 5-IATR (conjugate, UniProt P11904 1-320, looked up)
Plasmid segregation protein …: MLVFIDDGSTNIKLQWQESDGTIKQHISPNSFKREWAVSFGDKKVFNYTLNGEQYSFDPISPDAVVTTNIAWQYSDVNVVAVHHALLTSGLPVSEVDIVCTLPLTEYYDRNNQPNTENIERKKANFRKKITLNGGDTFTIKDVKVMPESIPAGYEVLQELDELDSLLIIDLGGTTLDISQVMGKLSGISKIYGDSSLGVSLVTSAVKDALSLARTKGSSYLADDIIIHRKDNNYLKQRINDENKISIVTEAMNEALRKLEQRVLNTLNEFSGYTHVMVIGGGAELICDAVKKHTQIRDERFFKTNNSQYDLVNGMYLIGN
modifications: 5-IATR label
B2: MIANS-ParM (I27C): ParM I27C/C287A labeled with MIANS (conjugate, UniProt P11904 1-320, looked up, variant I27C C287A)
Plasmid segregation protein …: B1 Plasmid segregation protein … with I27C, C287A
modifications: MIANS label
B3: IDCC-ParM (T215C): ParM T215C/C287A labeled with IDCC (conjugate, UniProt P11904 1-320, looked up, variant T215C C287A)
Plasmid segregation protein …: B1 Plasmid segregation protein … with T215C, C287A
modifications: IDCC label
B4: MPrCC-ParM (T215C): ParM T215C/C287A labeled with MPrCC (conjugate, UniProt P11904 1-320, looked up, variant T215C C287A)
Plasmid segregation protein …: B1 Plasmid segregation protein … with T215C, C287A
modifications: MPrCC label
B5: Cy3b-ParM (I27C): ParM I27C/C287A labeled with Cy3B-maleimide (conjugate, UniProt P11904 1-320, looked up, variant I27C C287A)
Plasmid segregation protein …: B1 Plasmid segregation protein … with I27C, C287A
modifications: Cy3B label
B6: MDCC-ParM (T215C): ParM T215C/C287A labeled with MDCC (conjugate, UniProt P11904 1-320, looked up, variant T215C C287A)
Plasmid segregation protein …: B1 Plasmid segregation protein … with T215C, C287A
modifications: MDCC label
B7: CPM-ParM (T215C): ParM T215C/C287A labeled with CPM (conjugate, UniProt P11904 1-320, looked up, variant T215C C287A)
Plasmid segregation protein …: B1 Plasmid segregation protein … with T215C, C287A
modifications: CPM label
B8: 5-IATR-ParM (D58C) (conjugate, UniProt P11904 1-320, looked up, variant D58C)
Plasmid segregation protein …: B1 Plasmid segregation protein … with D58C
modifications: 5-IATR rhodamine label
B9: CPM-ParM (S204C): ParM S204C/C287A labeled with CPM (conjugate, UniProt P11904 1-320, looked up, variant S204C C287A)
Plasmid segregation protein …: B1 Plasmid segregation protein … with S204C, C287A
modifications: CPM label
B10: CPM-ParM (I27C): ParM I27C/C287A labeled with CPM (conjugate, UniProt P11904 1-320, looked up, variant I27C C287A)
Plasmid segregation protein …: B1 Plasmid segregation protein … with I27C, C287A
modifications: CPM label
B11: MPrCC-ParM (I27C): ParM I27C/C287A labeled with MPrCC (conjugate, UniProt P11904 1-320, looked up, variant I27C C287A)
Plasmid segregation protein …: B1 Plasmid segregation protein … with I27C, C287A
modifications: MPrCC label
B12: Alexa 488-ParM (I27C): ParM I27C/C287A labeled with AlexaFluor-488-maleimide (conjugate, UniProt P11904 1-320, looked up, variant I27C C287A)
Plasmid segregation protein …: B1 Plasmid segregation protein … with I27C, C287A
modifications: Alexa Fluor 488 label
B13: 5-IATR-ParM (I27C) (conjugate, UniProt P11904 1-320, looked up, variant I27C)
Plasmid segregation protein …: B1 Plasmid segregation protein … with I27C
modifications: 5-IATR rhodamine label
B14: IDCC-ParM (I27C): ParM I27C/C287A labeled with IDCC (conjugate, UniProt P11904 1-320, looked up, variant I27C C287A)
Plasmid segregation protein …: B1 Plasmid segregation protein … with I27C, C287A
modifications: IDCC label
B15: MDCC-ParM (D58C): ParM D58C/C287A labeled with MDCC (conjugate, UniProt P11904 1-320, looked up, variant D58C C287A)
Plasmid segregation protein …: B1 Plasmid segregation protein … with D58C, C287A
modifications: MDCC label
B16: Cy3-ParM (I27C): ParM I27C/C287A labeled with Cy3-maleimide (conjugate, UniProt P11904 1-320, looked up, variant I27C C287A)
Plasmid segregation protein …: B1 Plasmid segregation protein … with I27C, C287A
modifications: Cy3-maleimide label
B17: MDCC-ParM (D63C): ParM D63C/C287A labeled with MDCC (conjugate, UniProt P11904 1-320, looked up, variant D63C C287A)
Plasmid segregation protein …: B1 Plasmid segregation protein … with D63C, C287A
modifications: MDCC label
B18: MDCC-ParM (WT): wild-type ParM labeled with MDCC (conjugate, UniProt P11904 1-320, looked up)
Plasmid segregation protein …: B1 Plasmid segregation protein …
modifications: MDCC label
B19: IDCC-ParM (S204C): ParM S204C/C287A labeled with IDCC (conjugate, UniProt P11904 1-320, looked up, variant S204C C287A)
Plasmid segregation protein …: B1 Plasmid segregation protein … with S204C, C287A
modifications: IDCC label
B20: MDCC-ParM (S204C): ParM S204C/C287A labeled with MDCC (conjugate, UniProt P11904 1-320, looked up, variant S204C C287A)
Plasmid segregation protein …: B1 Plasmid segregation protein … with S204C, C287A
modifications: MDCC label
B21: Acrylodan-ParM (WT): wild-type ParM labeled with acrylodan (conjugate, UniProt P11904 1-320, looked up)
Plasmid segregation protein …: B1 Plasmid segregation protein …
modifications: acrylodan label
B22: 5-IATR-ParM (D63C) (conjugate, UniProt P11904 1-320, looked up, variant D63C)
Plasmid segregation protein …: B1 Plasmid segregation protein … with D63C
modifications: 5-IATR rhodamine label
B23: IDCC-ParM (D58C): ParM D58C/C287A labeled with IDCC (conjugate, UniProt P11904 1-320, looked up, variant D58C C287A)
Plasmid segregation protein …: B1 Plasmid segregation protein … with D58C, C287A
modifications: IDCC label
B24: IDCC-ParM (WT): wild-type ParM labeled with IDCC (conjugate, UniProt P11904 1-320, looked up)
Plasmid segregation protein …: B1 Plasmid segregation protein …
modifications: IDCC label
B25: MIANS-ParM (S204C): ParM S204C/C287A labeled with MIANS (conjugate, UniProt P11904 1-320, looked up, variant S204C C287A)
Plasmid segregation protein …: B1 Plasmid segregation protein … with S204C, C287A
modifications: MIANS label
B26: 6-IATR-ParM (WT): wild-type ParM labeled with 6-IATR (conjugate, UniProt P11904 1-320, looked up)
Plasmid segregation protein …: B1 Plasmid segregation protein …
modifications: 6-IATR label
B27: IDCC-ParM (D63C): ParM D63C/C287A labeled with IDCC (conjugate, UniProt P11904 1-320, looked up, variant D63C C287A)
Plasmid segregation protein …: B1 Plasmid segregation protein … with D63C, C287A
modifications: IDCC label
B28: MIANS-ParM (WT): wild-type ParM labeled with MIANS (conjugate, UniProt P11904 1-320, looked up)
Plasmid segregation protein …: B1 Plasmid segregation protein …
modifications: MIANS label

Assay: Screening mutant/fluorophore combinations for a fluorescence response to ADP
Details: ParM mutant/fluorophore combination

Molecule	Fluorescence change, ratio of the intensity in presence of 1 mM ADP to that in the absence of ADP
B1	0.74
B2	0.72
B3	0.74
B4	0.78
B5	0.83
B6	0.74
B7	0.76
B8	0.83
B9	0.62
B10	0.62
B11	1.1
B12	0.78
B13	1.3
B14	1.5
B15	0.82
B16	1.2
B17	0.48
B18	0.27
B19	0.80
B20	0.68
B21	0.59
B22	0.80
B23	0.93
B24	0.34
B25	0.91
B26	0.70
B27	0.53
B28	0.50
